We go through one molecule from US20240150490A1 (MABPRO A S, published 2024).

Test [1] deals with CA IX expressed by cells (C-33a_CA IX transfectants; hypoxic BT-20, JIMT-1, 8-MG-BA and 42-MG-BA cells) (human, UniProt Q16790 38-459). Put plainly: cell-based or functional assay.
For a further test, the target named is recombinant human CA IX (human, UniProt Q16790 38-414). Put plainly: SPR (Biacore 2000), antibody captured on CM5 chip, rh CA IX in flow, 25 C. How it is done:
In order to determinate the antigen-binding affinity of humanized variants, measurements of affinity constant (KD) for antibodies binding to CA IX were performed by SPR using a Biacore 2000 (T200 in case of CA9hu-2) instrument (GE Healthcare, Piscataway, NJ USA). Each humanized antibody variant was captured on the CM5 sensor chip and recombinant human CA IX (rh CA IX; 42 kDa; R&D Systems, Inc., Minneapolis MN, USA) protein as an antigen was added to the buffer flowing over the chip. The setting details of quantitative interaction analysis between humanized antibodies and rh CA IX were as follows: flow rate 30 μl/min; analysis temperature 25° C.; analysis buffer (10mM HEPES pH 7.4, 150 mM NaCl, […], 0.05% Tween 20). Results from SPR analysis are expressed as the equilibrium dissociation constant (KD) (Table 7).
A general note: Surface plasmon resonance follows binding to a sensor surface in real time, without labels.

B1: CA9hu-1_HC4LC4 (antibody, V domains shown)
VH: EVQLVESGGGLVQPGGSLRLSCAASGFTFTDYYMHWVRQAPGRGLEWVAFIRNKASGYTPQYSASVKGRFTISRDNAENSLYLQMNSLRAEDTAVYYCVRGGHAGSNYWYFDVWGKGTTVTVSS
VL: DIQMTQSPSSLSASVGDRVTINCHVSQNINVWLSWYQQKPGEAPKLLIYQASNLHTGVPSRFSGSGSGTGFTLTIRSLQPEDYATYYCQQGQSYPFTFGQGTKLEIK
notes: Humanized from murine VII/20; also called HC4LC4 (CA9hu-1)
One may read the Kd as the constant that tells how readily two partners part at equilibrium. Take B1: the “ADCC reporter activity, induction over no Ab, BT-20 cells” value in test [1] was greater than 25 fold. In addition, in the test with recombinant human CA IX, the Kd turned out to be 15.2 nM.
